Results published in US7192735.
Values joined by “and” are separate entries in the source; they are usually repeats but may differ in a detail not shown here. Identical values can stand only once.

Tests used:
[1] = target: T1, His6-SrfB1 (N-terminal hexa-histidine-tagged SrfB1 valine-activating domain of surfactin synthetase) (UniProt Q04747)
T1 sequence: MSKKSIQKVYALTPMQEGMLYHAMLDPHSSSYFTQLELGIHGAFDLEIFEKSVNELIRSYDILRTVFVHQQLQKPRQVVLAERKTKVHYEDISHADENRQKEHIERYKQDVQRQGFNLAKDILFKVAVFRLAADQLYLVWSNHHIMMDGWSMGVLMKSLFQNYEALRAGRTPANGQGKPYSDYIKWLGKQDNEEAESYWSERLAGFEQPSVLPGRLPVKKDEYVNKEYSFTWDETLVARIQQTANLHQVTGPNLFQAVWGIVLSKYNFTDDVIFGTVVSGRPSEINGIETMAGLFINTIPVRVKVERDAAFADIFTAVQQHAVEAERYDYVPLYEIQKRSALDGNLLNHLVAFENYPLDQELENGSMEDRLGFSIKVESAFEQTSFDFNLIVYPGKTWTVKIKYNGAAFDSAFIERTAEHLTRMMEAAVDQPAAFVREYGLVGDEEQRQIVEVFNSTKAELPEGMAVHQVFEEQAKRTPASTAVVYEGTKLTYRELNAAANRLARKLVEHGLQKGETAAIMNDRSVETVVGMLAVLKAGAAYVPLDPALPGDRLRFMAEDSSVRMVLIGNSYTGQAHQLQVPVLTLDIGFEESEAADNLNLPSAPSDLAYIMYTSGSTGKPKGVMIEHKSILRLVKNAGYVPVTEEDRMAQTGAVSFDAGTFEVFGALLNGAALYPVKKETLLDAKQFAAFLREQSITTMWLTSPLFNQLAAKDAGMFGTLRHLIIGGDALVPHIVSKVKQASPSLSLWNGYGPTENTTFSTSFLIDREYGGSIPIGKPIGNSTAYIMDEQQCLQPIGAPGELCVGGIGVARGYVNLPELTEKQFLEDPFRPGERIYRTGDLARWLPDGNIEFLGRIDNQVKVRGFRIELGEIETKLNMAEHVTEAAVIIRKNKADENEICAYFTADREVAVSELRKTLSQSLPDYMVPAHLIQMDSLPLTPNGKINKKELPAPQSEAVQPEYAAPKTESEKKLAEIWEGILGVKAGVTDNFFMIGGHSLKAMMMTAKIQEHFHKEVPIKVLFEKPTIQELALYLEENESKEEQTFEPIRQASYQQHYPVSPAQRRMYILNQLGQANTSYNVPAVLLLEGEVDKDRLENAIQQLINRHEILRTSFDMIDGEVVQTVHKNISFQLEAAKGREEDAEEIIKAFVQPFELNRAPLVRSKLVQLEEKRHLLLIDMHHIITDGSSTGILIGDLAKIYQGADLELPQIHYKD

[2] = system: His6-peptidyl carrier protein (PCP domain of TycA, hexa-histidine tagged)
[3] = target: E. coli fatty acid synthase apo-acyl carrier protein (apo-ACP) (UniProt P0A6A8)
Sequence of E. coli fatty acid synthase apo-acyl carrier protein (apo-ACP) (P0A6A8 2-78): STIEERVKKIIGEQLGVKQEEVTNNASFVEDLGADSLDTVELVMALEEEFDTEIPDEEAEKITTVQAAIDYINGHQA

[4] = target: EntF (E. coli enterobactin synthetase component), apo form (UniProt P11454)
Sequence of EntF (E. coli enterobactin synthetase component), apo form (P11454 whole entry, the tested form may be a part): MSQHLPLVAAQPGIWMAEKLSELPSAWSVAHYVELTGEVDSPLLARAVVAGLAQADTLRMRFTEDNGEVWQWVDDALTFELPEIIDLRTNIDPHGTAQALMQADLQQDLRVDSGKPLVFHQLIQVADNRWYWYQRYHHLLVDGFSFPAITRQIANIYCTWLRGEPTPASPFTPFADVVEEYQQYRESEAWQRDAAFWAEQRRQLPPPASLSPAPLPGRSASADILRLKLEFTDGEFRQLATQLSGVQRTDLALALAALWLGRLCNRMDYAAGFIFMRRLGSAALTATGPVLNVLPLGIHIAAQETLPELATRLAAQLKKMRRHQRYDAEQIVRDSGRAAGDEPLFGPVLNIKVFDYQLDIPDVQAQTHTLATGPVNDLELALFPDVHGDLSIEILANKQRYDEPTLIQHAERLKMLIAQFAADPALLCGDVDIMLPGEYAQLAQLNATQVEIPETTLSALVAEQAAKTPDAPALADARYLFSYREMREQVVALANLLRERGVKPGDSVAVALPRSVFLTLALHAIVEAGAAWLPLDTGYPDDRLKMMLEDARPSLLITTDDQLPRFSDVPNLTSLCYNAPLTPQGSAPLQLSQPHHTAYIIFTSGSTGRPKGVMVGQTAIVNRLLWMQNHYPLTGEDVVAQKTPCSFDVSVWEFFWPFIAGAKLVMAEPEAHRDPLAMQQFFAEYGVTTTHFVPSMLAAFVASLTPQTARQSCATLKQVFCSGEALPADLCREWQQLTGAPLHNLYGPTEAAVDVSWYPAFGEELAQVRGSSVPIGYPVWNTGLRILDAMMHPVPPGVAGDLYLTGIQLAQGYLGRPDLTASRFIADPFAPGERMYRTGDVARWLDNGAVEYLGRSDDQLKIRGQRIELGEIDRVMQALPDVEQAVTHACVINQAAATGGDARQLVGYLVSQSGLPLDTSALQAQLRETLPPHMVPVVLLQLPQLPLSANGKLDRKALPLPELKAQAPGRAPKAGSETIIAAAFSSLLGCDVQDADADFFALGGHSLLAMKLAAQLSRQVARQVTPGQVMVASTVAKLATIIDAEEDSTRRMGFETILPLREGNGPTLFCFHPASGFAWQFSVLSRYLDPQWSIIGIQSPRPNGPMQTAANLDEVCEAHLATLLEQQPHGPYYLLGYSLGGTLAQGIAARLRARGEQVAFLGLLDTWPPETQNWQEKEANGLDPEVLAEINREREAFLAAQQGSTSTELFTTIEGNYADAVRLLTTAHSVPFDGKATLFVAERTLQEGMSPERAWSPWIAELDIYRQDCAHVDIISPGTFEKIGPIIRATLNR

[5] = target: His6-SrfB1 (N-terminal hexa-histidine-tagged SrfB1 valine-activating domain of surfactin synthetase) (Bacillus) (UniProt Q04747); assay: cell-based or functional assay
[6] = system: Rhizobial NodF (wild-type)
[7] = system: Streptomycete ACP involved in oxytetracycline polyketide antibiotic biosynthesis (apo-form)
[8] = system: Streptomycete ACP involved in frenolicin polyketide antibiotic biosynthesis (apo-form)
[9] = system: Lactobacillus casei D-Alanyl carrier protein (apo-Dcp)
[10] = system: Streptomycete ACP involved in tetracenomycin polyketide antibiotic biosynthesis (apo-form)
[11] = system: Streptomycete ACP involved in granaticin polyketide antibiotic biosynthesis (apo-form)

Substance: Sfp (B. subtilis phosphopantetheinyl transferase)
- incorporation of [3H]-4'-Ppant [1]: Sfp is capable of phosphopantetheinylating an SfrB1 fragment
- [3H]-4'-Ppant incorporated versus substrate concentration [2]: Sfp is capable of phosphopantetheinylating a substrate, such as PCP, in a wide range of concentrations
- phosphopantetheinylation [2]: Sfp efficiently catalyzes modification of all three substrates
- phosphopantetheinylation [3]: Sfp efficiently catalyzes modification of all three substrates

Substance: EntD (E. coli), recombinant from pET28b-entD
- incorporation of [3H]-4'-Ppant [4]: EntD is capable of phosphopantetheinylating an EntF fragment
- time course of incorporation of radiolabel into EntF [4]: EntF is modified effectively by EntD (100 nM)

Substance: Sfp (B. subtilis phosphopantetheinyl transferase) (enzyme)
- level of [^14C]-L-valine-holo-SrfB1 covalent complex formed [5]: 14 fold

Substance: Escherichia coli holo-acyl carrier protein synthase (ACPS)
- time course of incorporation of radiolabel into EntF [4]: EntF undergoes almost no modification in the presence of 15-fold higher concentrations of ACPS and o195
- % conversion [6]: 47% conversion
- [3H]phosphopantetheine incorporated (+ ACPS) [6]: 236 000 dpm
- phosphopantetheinylation [7]: E. coli ACPS modifies the apo-form of Streptomycete ACPs involved in frenolicin, granaticin, oxytetracycline, and tetracenomycin polyketide antibiotic biosynthesis
- phosphopantetheinylation [8]: E. coli ACPS modifies the apo-form of Streptomycete ACPs involved in frenolicin, granaticin, oxytetracycline, and tetracenomycin polyketide antibiotic biosynthesis
- [^3H] holo-Dcp formed versus apo-Dcp [9]: the amount of holo-Dcp formed increases linearly with the amount of apo-Dcp in the reaction
- radioactivity incorporated into the protein fraction (Dcp + ACPS) [9]: 0.98 × 10^6 (±0.95%) and 1.04 × 10^6 (±0.93%) and 1.00 × 10^6 (±0.77%)
- phosphopantetheinylation [10]: E. coli ACPS modifies the apo-form of Streptomycete ACPs involved in frenolicin, granaticin, oxytetracycline, and tetracenomycin polyketide antibiotic biosynthesis
- % conversion [3]: 46% conversion
- Km value for apo-ACP [3]: we were able to assign an upper limit of ˜1 µM to the Km value for apo-ACP
- [3H]phosphopantetheine incorporated (+ ACPS) [3]: 1 320 000 dpm
- apparent kcat [3]: An apparent kcat value of about 10 min^-1 was measured at saturating CoA and 50 µM apo-ACP
- radioactivity incorporated into the protein fraction (ACP + ACPS) [3]: 2.13 × 10^6 (±.65%) and 2.20 × 10^6 (±.64%) and 2.21 × 10^6 (±.63%)
- time course of holo-ACP formation [3]: almost exclusive modification of apo-ACP by ACPS
- phosphopantetheinylation [11]: E. coli ACPS modifies the apo-form of Streptomycete ACPs involved in frenolicin, granaticin, oxytetracycline, and tetracenomycin polyketide antibiotic biosynthesis
- [3H]phosphopantetheine incorporated (+ ACPS) (ACP-NodF chimera): 122 000 dpm
